These results are taken from US20100316644A1 (ACCELERON PHARMA, published 2010).

First the molecules themselves.
B1: ActRIIB(20-134)-hFc (Fc fusion, not shown: a dimerising Fc or GST)
chain: GRGEAETRECIYYNANWELERTNQSGLERCEGEQDKRLHCYASWRNSSGTIELVKKGCWLDDFNCYDRQECVATEENPQVYFCCCEGNFCNERFTHLPEAGGPEVTYEPPPTAPT
notes: The residue range comes from the construct name; also called full-length counterpart ActRIIB(20-134)-hFc

What all share (assay): Biacore, steady-state affinity fit
On the technique in general: Surface plasmon resonance follows binding to a sensor surface in real time, without labels.

One test concerns the target T1, Activin A (UniProt P08476 311-426).
T1 sequence (looked up): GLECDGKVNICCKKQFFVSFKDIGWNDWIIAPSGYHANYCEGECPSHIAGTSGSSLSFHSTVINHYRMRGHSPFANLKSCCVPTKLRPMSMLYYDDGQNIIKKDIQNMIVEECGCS
An excerpt: (§1) Kd values were obtained by steady-state affinity fit due to very rapid association and dissociation of the complex, which prevented accurate determination of kₒₙ and koff.

The target of the next test is T2, Activin B (UniProt P09529 293-407).
T2 sequence (looked up): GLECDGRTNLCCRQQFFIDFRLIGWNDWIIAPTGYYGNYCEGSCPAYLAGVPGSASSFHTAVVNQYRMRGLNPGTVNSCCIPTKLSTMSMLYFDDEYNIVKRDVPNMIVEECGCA
Source text: as §1

The test “ActRIIB(20-134)-hFc” addresses B1.
Source text: as §1

By Kd is commonly meant a measure of binding affinity in units of concentration. Lower therefore signals higher affinity. As for B1, the Kd came to 0.016 nM with Activin A and 0.012 nM with Activin B.

B2: Growth and Differentiation Factor-11 (GDF11) (ligand, UniProt O95390 299-407, looked up)
chain: NLGLDCDEHSSESRCCRYPLTVDFEAFGWDWIIAPKRYKANYCSGQCEYMFMQKYPHTHLVQQANPRGSAGPCCTPTKMSPINMLYFNDKQQIIYGKIPGMVVDRCGCS
notes: also called BMP11
The molecule B2 gave a Kd in the test with ActRIIB(20-134)-hFc of 0.036 nM.
